One assay concerns the target T1, FcgRIIIB SH (human, UniProt O75015).
T1 construct: cell surface, on engineered CHO-K1 cells; the list of molecules has only an FcγRIIIb on CHO-K1 cells without the allotype; also called human FcγRIIIb (SH) on CHO-K1 cells
The assay can be described thus: flow cytometry on CHO-K1 cells expressing the receptor (curve FcgRIIIB SH), monomeric antibody, F(ab')2 anti-human IgG AF647; N=1. (In general: A flow cytometer gives signals particle by particle.)

Assay [1] deals with T2, cynomolgus α4β7 integrin (cynomolgus monkey).
T2 construct: whole, on cells; On CHOK1-cα4β7 cells or cynomolgus blood lymphocytes; also called cα4β7; cyno α4β7
The assay can be described thus: FACS, cyno CD4+ naïve.

Assay [2] addresses T2, cynomolgus α4β7 integrin. Put plainly: FACS, cyno CD8+ memory.
For assay [3], the target named is T2, cynomolgus α4β7 integrin. The assay can be described thus: FACS, cyno CD8+ total.
The target in another assay is T3, human α4β1 integrin (human, UniProt P05556 21-798).
T3 construct: whole, on cells; also called hα4β1
Put plainly: FACS on recombinant cells expressing human α4β1; N=1.

Assay [4] concerns the target T2, cynomolgus α4β7 integrin. Put plainly: binding, cynomolgus lymphocytes, summary table.
The target of assay [5] is T2, cynomolgus α4β7 integrin. Put plainly: FACS, cyno total CD4+ T cells.
Assay [6] concerns the target T2, cynomolgus α4β7 integrin. The assay can be described thus: FACS, cynomolgus lymphocytes.
Assay [7] concerns the target T4, human FcγRIIIa (F176) on CHO-K1 cells (human, UniProt P08637 17-254).
T4 construct: whole, on cells; also called F158
The assay can be described thus: flow cytometry on CHO-K1 cells expressing the receptor (curve FcgRIIIA F176), monomeric antibody, F(ab')2 anti-human IgG AF647; N=1.

The target in assay [8] is T2, cynomolgus α4β7 integrin. Put plainly: FACS, cyno CD4+ naïve. The source holds these as a separate data set.
In assay [9] the target is T2, cynomolgus α4β7 integrin. The assay can be described thus: FACS, cyno CD8+ naïve.
For assay [10], the target named is T5, human FcγRIIa (H131) extracellular domain protein (human, UniProt P12318 34-217).
T5 construct: extracellular domain; also called hFcγRIIa (H131); FcγRIIa 131H
T5 sequence (looked up): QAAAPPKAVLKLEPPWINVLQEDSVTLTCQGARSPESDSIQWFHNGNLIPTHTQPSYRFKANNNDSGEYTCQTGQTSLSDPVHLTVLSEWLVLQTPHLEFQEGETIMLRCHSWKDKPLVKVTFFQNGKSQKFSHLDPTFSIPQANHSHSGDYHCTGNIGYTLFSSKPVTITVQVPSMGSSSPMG
The assay can be described thus: SPR (Biacore), N = 1.

The record followed here is patent publication US20260062488A1 (AbbVie / Abbott, published 2026).

T4 sequence (P08637 17-254): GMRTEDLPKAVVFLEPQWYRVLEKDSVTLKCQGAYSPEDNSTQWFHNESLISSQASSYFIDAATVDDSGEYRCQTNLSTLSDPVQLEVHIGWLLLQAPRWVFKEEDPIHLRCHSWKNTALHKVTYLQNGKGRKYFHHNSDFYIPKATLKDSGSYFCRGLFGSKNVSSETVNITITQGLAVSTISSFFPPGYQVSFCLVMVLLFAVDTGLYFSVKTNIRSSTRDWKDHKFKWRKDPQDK
T1 sequence (O75015 17-200 N65S/A78D limits assumed): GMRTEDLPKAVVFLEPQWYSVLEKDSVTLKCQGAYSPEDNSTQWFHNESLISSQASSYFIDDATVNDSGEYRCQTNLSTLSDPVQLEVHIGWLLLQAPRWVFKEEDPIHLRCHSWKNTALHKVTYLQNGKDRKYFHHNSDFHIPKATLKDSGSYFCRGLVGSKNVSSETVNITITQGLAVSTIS

B1: Ab-h1.9d-WT (antibody, human IgG1, kappa)
heavy: not shown
light: DIQMTQSPSSLSASVGDRVTITCHASQDISDNIGWLQQKPGKSFKLLIYHGTNLEDGVPSRFSGSGSGTDYTLTISSLQPEDFATYYCVQYAQFPWTFGGGTKVEIKRTVAAPSVFIFPPSDEQLKSGTASVVCLLNNFYPREAKVQWKVDNALQSGNSQESVTEQDSKDSTYSLSSTLTLSKADYEKHKVYACEVTHQGLSSPVTKSFNRGEC
notes: IgG1/kappa with D356E and L358M (EU); also called Anti-human α4β7 (AC-166667) hu IgG1/k WT mAb
Take B1: the binding result in the assay with FcgRIIIB SH is “binds”; in the assay with human α4β1 integrin, “no binding (tested: about 70 (axis without unit))”; in assay [7] it was “binds”. For the same molecule, the 50% effective concentration (EC50) with cynomolgus α4β7 integrin [1] amounted to 0.045 nM; with cynomolgus α4β7 integrin [2], 0.036 nM; with cynomolgus α4β7 integrin [3] it was 0.035 nM; in the assay with cynomolgus α4β7 integrin [4] it was 0.062 nM; with cynomolgus α4β7 integrin [5], 0.03 nM; with cynomolgus α4β7 integrin [6] it was 0.062 nM. The concentration for a half-maximal effect (EC50) with cynomolgus α4β7 integrin [8] was 0.045 nM; with cynomolgus α4β7 integrin [9], 0.042 nM. The same molecule registered a dissociation constant Kd in assay [10] of 4 µM.

The EC50 is the concentration at which the effect is half-maximal. As a reminder, the Kd is a measure of binding affinity in units of concentration. Lower therefore signals a tighter complex.
